Reference: article PMC3807529 (Biochemistry, 2013)

What was measured:
[1] = molecular target: T1, ataxin-3 fragment containing all three UIM sequences (residues 194-361, UIM_123) (human, UniProt P54252 194-361); test: NMR titration
[2] = molecular target: T1, ataxin-3 fragment containing all three …; test: NMR titration; remark: listed apart in the source

T1 sequence (P54252 194-361): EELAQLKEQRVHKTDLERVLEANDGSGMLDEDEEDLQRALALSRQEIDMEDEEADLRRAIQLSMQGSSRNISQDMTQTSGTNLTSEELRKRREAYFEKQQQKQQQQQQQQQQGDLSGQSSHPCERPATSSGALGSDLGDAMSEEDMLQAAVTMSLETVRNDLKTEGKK

B1: human parkin ubiquitin-like domain (residues 1-77) (domain or fragment, UniProt O60260 1-77, looked up)
chain: MIVFVRFNSSHGFPVEVDSDTSIFQLKEVVAKRQGVPADQLRVIFAGKELRNDWTVQNCDLDQQSIVHIVQRPWRKG
- KD of each individual UIM (UIM1, UIM2, UIM3) in UIM_123 [1]: > 1000 µM
- Kd [2]: 236 ± 14 µM
